The test addresses T1, 生物素化Zaire GP蛋白 (pIRES-Zaire GP-BirA-FLAG SP-) (Ebola virus (EBOV) subtype Zaire, UniProt Q05320 33-676).
T1 construct: range 33-676; also called Zaire-GP-Biotin; Zaire-GP-BirA细胞裂解液
T1 sequence: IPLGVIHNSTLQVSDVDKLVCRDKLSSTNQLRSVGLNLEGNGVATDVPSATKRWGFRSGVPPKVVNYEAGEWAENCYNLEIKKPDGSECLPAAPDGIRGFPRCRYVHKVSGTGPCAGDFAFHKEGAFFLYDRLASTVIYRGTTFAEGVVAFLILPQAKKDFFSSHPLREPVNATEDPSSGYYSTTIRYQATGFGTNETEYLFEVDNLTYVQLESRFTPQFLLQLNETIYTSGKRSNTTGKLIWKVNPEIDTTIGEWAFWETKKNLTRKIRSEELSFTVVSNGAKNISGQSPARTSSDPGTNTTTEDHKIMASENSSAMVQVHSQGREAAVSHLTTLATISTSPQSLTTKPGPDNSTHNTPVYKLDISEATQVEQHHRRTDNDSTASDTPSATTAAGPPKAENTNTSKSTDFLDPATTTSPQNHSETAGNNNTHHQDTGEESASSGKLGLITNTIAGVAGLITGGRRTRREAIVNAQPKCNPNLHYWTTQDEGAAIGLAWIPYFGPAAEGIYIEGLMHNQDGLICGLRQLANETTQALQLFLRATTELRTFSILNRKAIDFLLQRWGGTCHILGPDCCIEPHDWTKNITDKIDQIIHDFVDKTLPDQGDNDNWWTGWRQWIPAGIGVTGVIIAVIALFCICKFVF
Nature of the test: indirect ELISA, […] (1:300) […]. A general note: An ELISA detects its analyte on a solid surface through an enzyme-linked reagent.

One molecule from patent CN107417788A (INST PASTEUR SHANGHAI CAS, dated 2017) can be followed below.

B1: S37-3 (antibody, V domains shown)
VH: EVQLQQSGPELVKPGASVKISCKASGYSFTGYFMNWVKQSHGKSLEWIGRINPYNGDTFYNQKFKGKATLTVDKSSSTAHMELLSLTSEDSAVYYCGRGLRAFLDYWGQGTTLTVSS
VL: DIVLTQSPATLSVTPGDRVSLSCRASQSISNYLHWYQQKSHESPRLLIKYASQSISGIPSRFSGSGSGTDFTLSINSVETEDFGMYFCQQSNSWPHTFGGGTKLEIK
notes: also called 单克隆抗体S37-3; S37-3上清
Take B1: the binding result is recorded as “binds”.
